Measurements: the RNAGym collection of RNA variant scans (doi:10.1021/acssynbio.7b00057)

B1: Pistol ribozyme (parent)
chain: GGGUCGUUGUUCCAUAAUCGCGUGGAUAUGGCACGCAAGUUUCUACCGGGCACCGUAAAUGUCCGACUGGAGCCGUUCGGGCGGCUAUAAACAGACCUCAGGCCCGAAGCGUGGCGGCACCUGCCGCCGGUGGUAAAAAAGAUCGGAAGAGCACACGUCU

Variants of: B1
Test: aptazyme ON/OFF ratio, guanine; higher = stronger switching; co-transcriptional cleavage with and without guanine

| Variant | aptazyme ON/OFF ratio |
| --- | --- |
| GGGUCGCAGUGCCAUAAUCGCGUGGAUAUGGCACGCAAGUUUCUACCGGGCACCGUAAAUGUCCGACUGGAGCCGUUCGGGCGGCUAUAAACAGACCUCAGGCCCGAAGCGUGGCGGCACCUGCCGCCGGUGGUAAAAAAGAUCGGAAGAGCACACGUCU | 1.18 |
| GGGUCGCAGUCCAAUAAUCGCGUGGAUAUGGCACGCAAGUUUCUACCGGGCACCGUAAAUGUCCGACUGGAGCCGUUCGGGCGGCUAUAAACAGACCUCAGGCCCGAAGCGUGGCGGCACCUGCCGCCGGUGGUAAAAAAGAUCGGAAGAGCACACGUCU | 1.1 |
| GGGUCGCAGUCCGAUAAUCGCGUGGAUAUGGCACGCAAGUUUCUACCGGGCACCGUAAAUGUCCGACUGGAGCCGUUCGGGCGGCUAUAAACAGACCUCAGGCCCGAAGCGUGGCGGCACCUGCCGCCGGUGGUAAAAAAGAUCGGAAGAGCACACGUCU | 1.06 |
| GGGUCGCAGUCCUAUAAUCGCGUGGAUAUGGCACGCAAGUUUCUACCGGGCACCGUAAAUGUCCGACUGGAGCCGUUCGGGCGGCUAUAAACAGACCUCAGGCCCGAAGCGUGGCGGCACCUGCCGCCGGUGGUAAAAAAGAUCGGAAGAGCACACGUCU | 1.04 |
| GGGUCGCCGUUUAAUAAUCGCGUGGAUAUGGCACGCAAGUUUCUACCGGGCACCGUAAAUGUCCGACUGGAGCCGUUCGGGCGGCUAUAAACAGACCUCAGGCCCGAAGCGUGGCGGCACCUGCCGCCGGUGGUAAAAAAGAUCGGAAGAGCACACGUCU | 1.41 |
| GGGUCGCAGUGCUAUAAUCGCGUGGAUAUGGCACGCAAGUUUCUACCGGGCACCGUAAAUGUCCGACUGGAGCCGUUCGGGCGGCUAUAAACAGACCUCAGGCCCGAAGCGUGGCGGCACCUGCCGCCGGUGGUAAAAAAGAUCGGAAGAGCACACGUCU | 1.19 |
| GGGUCGCAGUGCAAUAAUCGCGUGGAUAUGGCACGCAAGUUUCUACCGGGCACCGUAAAUGUCCGACUGGAGCCGUUCGGGCGGCUAUAAACAGACCUCAGGCCCGAAGCGUGGCGGCACCUGCCGCCGGUGGUAAAAAAGAUCGGAAGAGCACACGUCU | 1.14 |
| GGGUCGCAGUGCGAUAAUCGCGUGGAUAUGGCACGCAAGUUUCUACCGGGCACCGUAAAUGUCCGACUGGAGCCGUUCGGGCGGCUAUAAACAGACCUCAGGCCCGAAGCGUGGCGGCACCUGCCGCCGGUGGUAAAAAAGAUCGGAAGAGCACACGUCU | 1.06 |
| GGGUCGCAGUGUAAUAAUCGCGUGGAUAUGGCACGCAAGUUUCUACCGGGCACCGUAAAUGUCCGACUGGAGCCGUUCGGGCGGCUAUAAACAGACCUCAGGCCCGAAGCGUGGCGGCACCUGCCGCCGGUGGUAAAAAAGAUCGGAAGAGCACACGUCU | 1.29 |
| GGGUCGCAGUGUUAUAAUCGCGUGGAUAUGGCACGCAAGUUUCUACCGGGCACCGUAAAUGUCCGACUGGAGCCGUUCGGGCGGCUAUAAACAGACCUCAGGCCCGAAGCGUGGCGGCACCUGCCGCCGGUGGUAAAAAAGAUCGGAAGAGCACACGUCU | 1.37 |
| GGGUCGCAGUGUGAUAAUCGCGUGGAUAUGGCACGCAAGUUUCUACCGGGCACCGUAAAUGUCCGACUGGAGCCGUUCGGGCGGCUAUAAACAGACCUCAGGCCCGAAGCGUGGCGGCACCUGCCGCCGGUGGUAAAAAAGAUCGGAAGAGCACACGUCU | 1.13 |
| GGGUCGCAGUGUCAUAAUCGCGUGGAUAUGGCACGCAAGUUUCUACCGGGCACCGUAAAUGUCCGACUGGAGCCGUUCGGGCGGCUAUAAACAGACCUCAGGCCCGAAGCGUGGCGGCACCUGCCGCCGGUGGUAAAAAAGAUCGGAAGAGCACACGUCU | 1.3 |
| GGGUCGCAGUGACAUAAUCGCGUGGAUAUGGCACGCAAGUUUCUACCGGGCACCGUAAAUGUCCGACUGGAGCCGUUCGGGCGGCUAUAAACAGACCUCAGGCCCGAAGCGUGGCGGCACCUGCCGCCGGUGGUAAAAAAGAUCGGAAGAGCACACGUCU | 1.08 |
| GGGUCGCAGUGGCAUAAUCGCGUGGAUAUGGCACGCAAGUUUCUACCGGGCACCGUAAAUGUCCGACUGGAGCCGUUCGGGCGGCUAUAAACAGACCUCAGGCCCGAAGCGUGGCGGCACCUGCCGCCGGUGGUAAAAAAGAUCGGAAGAGCACACGUCU | 1.19 |
| GGGUCGCCGUUGCAUAAUCGCGUGGAUAUGGCACGCAAGUUUCUACCGGGCACCGUAAAUGUCCGACUGGAGCCGUUCGGGCGGCUAUAAACAGACCUCAGGCCCGAAGCGUGGCGGCACCUGCCGCCGGUGGUAAAAAAGAUCGGAAGAGCACACGUCU | 1.18 |
| GGGUCGCCGUUACAUAAUCGCGUGGAUAUGGCACGCAAGUUUCUACCGGGCACCGUAAAUGUCCGACUGGAGCCGUUCGGGCGGCUAUAAACAGACCUCAGGCCCGAAGCGUGGCGGCACCUGCCGCCGGUGGUAAAAAAGAUCGGAAGAGCACACGUCU | 1.37 |
| GGGUCGCCGUUUCAUAAUCGCGUGGAUAUGGCACGCAAGUUUCUACCGGGCACCGUAAAUGUCCGACUGGAGCCGUUCGGGCGGCUAUAAACAGACCUCAGGCCCGAAGCGUGGCGGCACCUGCCGCCGGUGGUAAAAAAGAUCGGAAGAGCACACGUCU | 1.75 |
| GGGUCGCCGUUCCAUAAUCGCGUGGAUAUGGCACGCAAGUUUCUACCGGGCACCGUAAAUGUCCGACUGGAGCCGUUCGGGCGGCUAUAAACAGACCUCAGGCCCGAAGCGUGGCGGCACCUGCCGCCGGUGGUAAAAAAGAUCGGAAGAGCACACGUCU | 3.51 |

| Variant | aptazyme ON/OFF ratio |
| --- | --- |
| GGGUCGCAGUCUCAUAAUCGCGUGGAUAUGGCACGCAAGUUUCUACCGGGCACCGUAAAUGUCCGACUGGAGCCGUUCGGGCGGCUAUAAACAGACCUCAGGCCCGAAGCGUGGCGGCACCUGCCGCCGGUGGUAAAAAAGAUCGGAAGAGCACACGUCU | 1.44 |
| GGGUCGCCGUUGUAUAAUCGCGUGGAUAUGGCACGCAAGUUUCUACCGGGCACCGUAAAUGUCCGACUGGAGCCGUUCGGGCGGCUAUAAACAGACCUCAGGCCCGAAGCGUGGCGGCACCUGCCGCCGGUGGUAAAAAAGAUCGGAAGAGCACACGUCU | 1.15 |
| GGGUCGCCGUUGAAUAAUCGCGUGGAUAUGGCACGCAAGUUUCUACCGGGCACCGUAAAUGUCCGACUGGAGCCGUUCGGGCGGCUAUAAACAGACCUCAGGCCCGAAGCGUGGCGGCACCUGCCGCCGGUGGUAAAAAAGAUCGGAAGAGCACACGUCU | 1.12 |
| GGGUCGCCGUUGGAUAAUCGCGUGGAUAUGGCACGCAAGUUUCUACCGGGCACCGUAAAUGUCCGACUGGAGCCGUUCGGGCGGCUAUAAACAGACCUCAGGCCCGAAGCGUGGCGGCACCUGCCGCCGGUGGUAAAAAAGAUCGGAAGAGCACACGUCU | 1.14 |
| GGGUCGCAGUCUUAUAAUCGCGUGGAUAUGGCACGCAAGUUUCUACCGGGCACCGUAAAUGUCCGACUGGAGCCGUUCGGGCGGCUAUAAACAGACCUCAGGCCCGAAGCGUGGCGGCACCUGCCGCCGGUGGUAAAAAAGAUCGGAAGAGCACACGUCU | 1.19 |
| GGGUCGCAGUCUAAUAAUCGCGUGGAUAUGGCACGCAAGUUUCUACCGGGCACCGUAAAUGUCCGACUGGAGCCGUUCGGGCGGCUAUAAACAGACCUCAGGCCCGAAGCGUGGCGGCACCUGCCGCCGGUGGUAAAAAAGAUCGGAAGAGCACACGUCU | 1.31 |
| GGGUCGCAGUCUGAUAAUCGCGUGGAUAUGGCACGCAAGUUUCUACCGGGCACCGUAAAUGUCCGACUGGAGCCGUUCGGGCGGCUAUAAACAGACCUCAGGCCCGAAGCGUGGCGGCACCUGCCGCCGGUGGUAAAAAAGAUCGGAAGAGCACACGUCU | 1.27 |
| GGGUCGCCGUUAAAUAAUCGCGUGGAUAUGGCACGCAAGUUUCUACCGGGCACCGUAAAUGUCCGACUGGAGCCGUUCGGGCGGCUAUAAACAGACCUCAGGCCCGAAGCGUGGCGGCACCUGCCGCCGGUGGUAAAAAAGAUCGGAAGAGCACACGUCU | 1.23 |
| GGGUCGCCGUUAUAUAAUCGCGUGGAUAUGGCACGCAAGUUUCUACCGGGCACCGUAAAUGUCCGACUGGAGCCGUUCGGGCGGCUAUAAACAGACCUCAGGCCCGAAGCGUGGCGGCACCUGCCGCCGGUGGUAAAAAAGAUCGGAAGAGCACACGUCU | 1.34 |
| GGGUCGCCGUUAGAUAAUCGCGUGGAUAUGGCACGCAAGUUUCUACCGGGCACCGUAAAUGUCCGACUGGAGCCGUUCGGGCGGCUAUAAACAGACCUCAGGCCCGAAGCGUGGCGGCACCUGCCGCCGGUGGUAAAAAAGAUCGGAAGAGCACACGUCU | 1.1 |
| GGGUCGCAGUGAAAUAAUCGCGUGGAUAUGGCACGCAAGUUUCUACCGGGCACCGUAAAUGUCCGACUGGAGCCGUUCGGGCGGCUAUAAACAGACCUCAGGCCCGAAGCGUGGCGGCACCUGCCGCCGGUGGUAAAAAAGAUCGGAAGAGCACACGUCU | 1.11 |
| GGGUCGCAGUGAUAUAAUCGCGUGGAUAUGGCACGCAAGUUUCUACCGGGCACCGUAAAUGUCCGACUGGAGCCGUUCGGGCGGCUAUAAACAGACCUCAGGCCCGAAGCGUGGCGGCACCUGCCGCCGGUGGUAAAAAAGAUCGGAAGAGCACACGUCU | 1.24 |
| GGGUCGCAGUGAGAUAAUCGCGUGGAUAUGGCACGCAAGUUUCUACCGGGCACCGUAAAUGUCCGACUGGAGCCGUUCGGGCGGCUAUAAACAGACCUCAGGCCCGAAGCGUGGCGGCACCUGCCGCCGGUGGUAAAAAAGAUCGGAAGAGCACACGUCU | 1.14 |
| GGGUCGCAGUGGAAUAAUCGCGUGGAUAUGGCACGCAAGUUUCUACCGGGCACCGUAAAUGUCCGACUGGAGCCGUUCGGGCGGCUAUAAACAGACCUCAGGCCCGAAGCGUGGCGGCACCUGCCGCCGGUGGUAAAAAAGAUCGGAAGAGCACACGUCU | 1.1 |
| GGGUCGCAGUGGGAUAAUCGCGUGGAUAUGGCACGCAAGUUUCUACCGGGCACCGUAAAUGUCCGACUGGAGCCGUUCGGGCGGCUAUAAACAGACCUCAGGCCCGAAGCGUGGCGGCACCUGCCGCCGGUGGUAAAAAAGAUCGGAAGAGCACACGUCU | 1.13 |
| GGGUCGCAGUGGUAUAAUCGCGUGGAUAUGGCACGCAAGUUUCUACCGGGCACCGUAAAUGUCCGACUGGAGCCGUUCGGGCGGCUAUAAACAGACCUCAGGCCCGAAGCGUGGCGGCACCUGCCGCCGGUGGUAAAAAAGAUCGGAAGAGCACACGUCU | 1.13 |
| GGGUCGCAGUCGGAUAAUCGCGUGGAUAUGGCACGCAAGUUUCUACCGGGCACCGUAAAUGUCCGACUGGAGCCGUUCGGGCGGCUAUAAACAGACCUCAGGCCCGAAGCGUGGCGGCACCUGCCGCCGGUGGUAAAAAAGAUCGGAAGAGCACACGUCU | 1.26 |
| GGGUCGCAGUCGUAUAAUCGCGUGGAUAUGGCACGCAAGUUUCUACCGGGCACCGUAAAUGUCCGACUGGAGCCGUUCGGGCGGCUAUAAACAGACCUCAGGCCCGAAGCGUGGCGGCACCUGCCGCCGGUGGUAAAAAAGAUCGGAAGAGCACACGUCU | 1.3 |
